Results reported in US20240279350A1.

Biological target: human CD40 on cells (human) (UniProt P25942)
Experiment: cell-based or functional assay

Chain of human CD40 on cells (human) (P25942 21-277 limits assumed): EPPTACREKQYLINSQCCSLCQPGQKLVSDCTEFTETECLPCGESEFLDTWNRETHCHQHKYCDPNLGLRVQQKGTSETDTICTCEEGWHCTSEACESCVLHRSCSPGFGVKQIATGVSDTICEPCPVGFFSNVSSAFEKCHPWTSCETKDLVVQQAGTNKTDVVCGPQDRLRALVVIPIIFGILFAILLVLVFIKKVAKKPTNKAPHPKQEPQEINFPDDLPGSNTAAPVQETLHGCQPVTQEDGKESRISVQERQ

EC50, CD83 expression, MoDC maturation assay: 0.24 nM
EC50, IL-8 release, MoDC maturation assay: 0.33 nM
Substance: Hexameric CD40L (from UniProt P29965 116-261) (ligand)
